# Molecular target: the molecule itself
# Test: crystal structure; HD domain (113-626) H206R/D207N constructs, 4 mg/ml, with 4 mM dGTP; microbatch under oil; 100 mM succinic acid-phosphate-glycine buffer, 30% PEG1500; tetramer
row,Protein,stoichiometry N
1,"SAMHD1 (113-626) H206R/D207N/R366C (domain or fragment, UniProt Q9Y3Z3 113-626, looked up, Crystallised with 4 mM dGTP; also called R366C (crystal construct); SAMHD1 HD/RN R366C) DTMKVINDPIHGHIELHPLLVRIIDTPQFQRLRYIKQLGGGYYVFPGASHNRFEHSLGVGYLAGCLVHALGEKQPELQISERDVLCVQIAGLCRNLGHGPFSHMFDGRFIPLARPEVKWTHEQGSVMMFEHLINSNGIKPVMEQYGLIPEEDICFIKEQIVGPLESPVEDSLWPYKGRPENKSFLYEIVSNKRNGIDVDKWDYFARDCHHLGIQNNFDYKRFIKFARVCEVDNELRICARDKEVGNLYDMFHTCNSLHRRAYQHKVGNIIDTMITDAFLKADDYIEITGAGGKKYRISTAIDDMEAYTKLTDNIFLEILYSTDPKLKDAREILKQIEYRNLFKYVGETQPTGQIKIKREDYESLPKEVASAKPKVLLDVKLKAEDFIVDVINMDYGMQEKNPIDHVSFYCKTAPNRAIRITKNQVSQLLPEKFAEQLIRVYCKKVDRKSLYAARQYFVQWCADRNFTKPQDGDVIAPLITPQKKEWNDSTSVQNPTRLREASKSRVQLFKDDPM",4
2,"SAMHD1 (113-626) H206R/D207N/R366H (domain or fragment, UniProt Q9Y3Z3 113-626, looked up, Crystallised with 4 mM dGTP; also called R366H (crystal construct); SAMHD1 HD/RN R366H) DTMKVINDPIHGHIELHPLLVRIIDTPQFQRLRYIKQLGGGYYVFPGASHNRFEHSLGVGYLAGCLVHALGEKQPELQISERDVLCVQIAGLCRNLGHGPFSHMFDGRFIPLARPEVKWTHEQGSVMMFEHLINSNGIKPVMEQYGLIPEEDICFIKEQIVGPLESPVEDSLWPYKGRPENKSFLYEIVSNKRNGIDVDKWDYFARDCHHLGIQNNFDYKRFIKFARVCEVDNELRICARDKEVGNLYDMFHTHNSLHRRAYQHKVGNIIDTMITDAFLKADDYIEITGAGGKKYRISTAIDDMEAYTKLTDNIFLEILYSTDPKLKDAREILKQIEYRNLFKYVGETQPTGQIKIKREDYESLPKEVASAKPKVLLDVKLKAEDFIVDVINMDYGMQEKNPIDHVSFYCKTAPNRAIRITKNQVSQLLPEKFAEQLIRVYCKKVDRKSLYAARQYFVQWCADRNFTKPQDGDVIAPLITPQKKEWNDSTSVQNPTRLREASKSRVQLFKDDPM",4
